Reference: patent US7985736B2, “High throughput screen utilizing newly discovered intramolecular neuronal calcium channel interactions to discover new analgesics” (The John Hopkins University, priority 2004, dated 2011)
“And” between values parts separate entries of the source, which are not always exact repeats. Identical values can stand only once.

B1: NTB: NH3 terminus of N-type channel α1B subunit, residues 1-95, expressed as free peptide (SEQ ID NO.: 1) (protein, listed as Homo sapiens)
chain: MVRFGDELGGRYGGPGGGERARGGGAGGAGGPGPGGLQPGQRVLYKQSIAQRARTMALYNPIPVKQNCFTVNRSLFVFSEDNVVRKYAKRITEWP

Key:
I-II loop of α1C (I-IIC) = target: T1, I-II loop of α1C (I-IIC) (Oryctolagus cuniculus, UniProt P15381); assay: Yeast two-hybrid assay, NT peptides versus I-IIC; format: binding, rabbit; details: NT segment in pGBKT7, I-IIC in pGADT7
T1 construct: I-IIC (436-554)/pGBKT7; expressed in transfected cells; host or cells: AH109 yeast
Description: (§1) For yeast two-hybrid assays, a PCR fragment encoding one partner was fused, in-frame, with the GAL4 DNA binding domain (BD) in pGBKT7 (Clontech, Palo Alto, Calif.). The other element was fused, in-frame, with the GAL4 activation domain (AD) in pGADT7. For specific residues, see Supplemental Data (section 2). For electrophysiology, NT peptides lacking fluorophore tag were PCR amplified and cloned in pcDNA3. NTB peptide residues, 1-95; NTC residues, […]. Throughout, all segments subject to PCR or QuikChange were verified in their entirety by sequencing.
The Matchmaker GAL4 Two-Hybrid System 3 was used (Clontech, Palo Alto, Calif.). AH109 yeast were transformed with pGBKT7/pGADT7-based constructs (Yeastmaker Yeast Transformation System 2 kit, Clontech). After 5-8 days, growth on -leucine/-trytophan plates confirmed transformation of both plasmids. […]
As a ‘medium’ stringency assay, expression of the lacZ gene was tested for encoding β-galactosidase, performing a filter lift with application of blue chromogenic substrate (Clontech-Laboratories, 1999). […] The percentage of colonies that turned blue in the filter lift assay, along with the percentage of colonies that survived on high stringency plates, was recorded for each pairing. […]

[1] = target: T2, N-type (α1B) Ca2+ channels (Homo sapiens, UniProt Q00975); assay: Whole-cell G/Q analysis and prepulse facilitation of recombinant N-type channels coexpressed with peptide in HEK293 cells; format: cell-based; details: for Effect on G/Q slope (Gmax-Qmax relation), with Gβγ: peptide coexpressed with channels and Gβγ, Gmax after 100 mV prepulse
T2 construct: transferred by EcoRI and Bgl II sites into the full-length α1B construct; expressed in transfected cells; host or cells: HEK293
Description: FIG. 3A illustrates an approach for N-type channels without Gβγ coexpression. Exemplar currents activated quickly and were barely facilitated by strong prepulse depolarization (FIG. 3A, left). The slight residual prepulse facilitation reflects basal endogenous Gβγ activation. To estimate open probability, two intermediary parameters were specified. First, to gauge the number of channels in a cell (Nchannel), the channel gating current at the reversal potential for ionic current were isolated (FIG. 3A, middle left) (Jones et al., 1999). The area under this current yields the maximal gating charge Qmax, where Qmax=Nchannel×qmax, and qmax is the maximal gating charge per channel. Second, Gmax for a given cell, the maximal ionic current conductance determined as the slope of the peak current-voltage relation at depolarized potentials were determined (FIG. 3A, middle right, line). Here and throughout, current-voltage relations were determined after a 100 mV prepulse, which transiently relieves all G protein inhibition (Colecraft et al., 2000), thus eliminating these inhibitory effects in the estimate of Gmax. Accordingly, Gmax=Nchannel×Po,max×g, where Po,max is the maximal channel open probability at saturating de-polarization, and g is the conductance of a single open channel. In combination, then, a plot of Gmax versus Qmax for multiple cells ([…]) would describe a linear relation with slope equal to Po,max×g/qmax. Because g and qmax are unchanged by G protein modulation (Colecraft et al., 2001; Jones et al., 1997; Patil et al., 1996), this slope (G/Q=0.44±0.03 nS/fC) is proportional to Po,max . . . FIG. 3B documents the supporting results for N-type channels coexpressed with Gβγ. Gmax determined after prepulse de-polarization, when plotted against Qmax, specifies an identical slope to that without Gβγ (FIG. 3B, right, G/Q=0.43±0.04 nS/fC). […] Free NTB peptide with α1B channels. Initially, an NTB-CFP peptide was employed to visually confirm expression was coexpressed. […] By contrast, coexpressing channels with NTB-CFP and Gβγ produced remarkable effects (FIG. 3D). […] More telling were small ionic current amplitudes despite gating current magnitudes on par with controls (FIG. 3D, middle panels). Consequently, there was a significant ^w6-fold depression of the Gmax-Qmax plot (FIG. 3D, right). If NTB-CFP were simply chelating Gβγ (FIG. 2C), the G/Q slope would be unchanged from control. Instead, the suppression of G/Q indicates constitutive inhibition of channel opening.
Cells were transiently transfected and cultured in 10 cm plates (Brody et al., 1997). For 2+Ca^2+ channels, 8 μg was used of each of cDNAs of the desired a1, rat brain β2a (Perez-Reyes et al., 1992), and rat brain a^28 (Tomlinson et al., 1993) subunits; along with 2 μg T-antigen cDNA. N-type α1B, human origin (NM000718); L-type α1C, rabbit (Wei et al., 1991) (X15539). Gβγ coexpressed with 4 μg each of Gβ1 (Sugimoto et al., 1985) and Gγ2 (Gautam et al., 1990). For coexpression of N-terminal peptides, channel subunit cDNA reduced to 6 μg, while adding 14 μg peptide cDNA. For receptor experiments, 0.5 μg cDNA for m2R (below) applied with other cDNAs.
Whole-cell current records were made with Axopatch 200B (Axon Instruments, Calif.), 1-3 days posttransfection. Pipets, 1.5-3 MΩ before 60-75% series resistance compensation. Internal solution: 135 mM CsMeSO4, 5 mM CsCl, 10 mM EGTA, 10 mM HEPES, 1 mM MgCl2, and 4 mM MgATP. External solution: 150 mM TEAMeSO4, 10 mM HEPES, 2 mM CaCl2, and 1 mM MgCl2. During constitutive inhibition (or as noted for some chimeras), 20 mM BaCl2 was substituted for 2 mM CaCl2, and the resulting solution was diluted 1.08×. To compare across external solutions, a conversion factor of 3.18 was used. Currents and conductances with 20 mM Ba^2+ were thus scaled×1/3.18 to facilitate uniform comparison of values, as if all data had been collected with 2 mM Ca^2+. When applied, conversion is denoted by asterisk (*). […]

I-II loop of α1B (I-IIB) = target: T3, I-II loop of α1B (I-IIB) (Homo sapiens, UniProt Q00975); assay: Yeast two-hybrid assay, NT peptides versus I-IIB; format: binding; details: NT segment in pGBKT7, I-IIB in pGADT7
T3 construct: I-IIB(357-482)-pGADT7 & lam-pGBKT7; expressed in transfected cells; host or cells: AH109 yeast
Description: as §1
The Matchmaker GAL4 Two-Hybrid System 3 was used (Clontech, Palo Alto, Calif.). AH109 yeast were transformed with pGBKT7/pGADT7-based constructs (Yeastmaker Yeast Transformation System 2 kit, Clontech). After 5-8 days, growth on -leucine/-trytophan plates confirmed transformation of both plasmids. If partners interact, GAL4 BD/AD would complex, activating reporter genes (HIS3, ADE2, lacZ, and MEL1), for which assays are detailed in the Supplemental Data (section 2.1).
As a ‘medium’ stringency assay, expression of the lacZ gene was tested for encoding β-galactosidase, performing a filter lift with application of blue chromogenic substrate (Clontech-Laboratories, 1999). After the filter lift, original plates were re-grown for 2-3 days at 30° C. Filter paper was then used to replicate colonies onto a high stringency plate (-adenine/-histidine/-leucine/-trytophan). These plates were then incubated at 30° C. for 5-8 days. Survival on high stringency plates indicates production of both adenine and histidine, from transcription of the ADE2 and HIS3 genes, respectively. The percentage of colonies that turned blue in the filter lift assay, along with the percentage of colonies that survived on high stringency plates, was recorded for each pairing. Experiments were repeated at least three times. False positives were controlled for by testing each segment in pGBKT7 against empty pGADT7, and each segment in pGADT7 against lamin C in pGBKT7 (lamin C interacts with few proteins). Average sum of these backgrounds was subtracted from B to produce the net interaction parameter ΔB (FIG. 2).

T2 sequence (Q00975 whole entry, other chains not shown): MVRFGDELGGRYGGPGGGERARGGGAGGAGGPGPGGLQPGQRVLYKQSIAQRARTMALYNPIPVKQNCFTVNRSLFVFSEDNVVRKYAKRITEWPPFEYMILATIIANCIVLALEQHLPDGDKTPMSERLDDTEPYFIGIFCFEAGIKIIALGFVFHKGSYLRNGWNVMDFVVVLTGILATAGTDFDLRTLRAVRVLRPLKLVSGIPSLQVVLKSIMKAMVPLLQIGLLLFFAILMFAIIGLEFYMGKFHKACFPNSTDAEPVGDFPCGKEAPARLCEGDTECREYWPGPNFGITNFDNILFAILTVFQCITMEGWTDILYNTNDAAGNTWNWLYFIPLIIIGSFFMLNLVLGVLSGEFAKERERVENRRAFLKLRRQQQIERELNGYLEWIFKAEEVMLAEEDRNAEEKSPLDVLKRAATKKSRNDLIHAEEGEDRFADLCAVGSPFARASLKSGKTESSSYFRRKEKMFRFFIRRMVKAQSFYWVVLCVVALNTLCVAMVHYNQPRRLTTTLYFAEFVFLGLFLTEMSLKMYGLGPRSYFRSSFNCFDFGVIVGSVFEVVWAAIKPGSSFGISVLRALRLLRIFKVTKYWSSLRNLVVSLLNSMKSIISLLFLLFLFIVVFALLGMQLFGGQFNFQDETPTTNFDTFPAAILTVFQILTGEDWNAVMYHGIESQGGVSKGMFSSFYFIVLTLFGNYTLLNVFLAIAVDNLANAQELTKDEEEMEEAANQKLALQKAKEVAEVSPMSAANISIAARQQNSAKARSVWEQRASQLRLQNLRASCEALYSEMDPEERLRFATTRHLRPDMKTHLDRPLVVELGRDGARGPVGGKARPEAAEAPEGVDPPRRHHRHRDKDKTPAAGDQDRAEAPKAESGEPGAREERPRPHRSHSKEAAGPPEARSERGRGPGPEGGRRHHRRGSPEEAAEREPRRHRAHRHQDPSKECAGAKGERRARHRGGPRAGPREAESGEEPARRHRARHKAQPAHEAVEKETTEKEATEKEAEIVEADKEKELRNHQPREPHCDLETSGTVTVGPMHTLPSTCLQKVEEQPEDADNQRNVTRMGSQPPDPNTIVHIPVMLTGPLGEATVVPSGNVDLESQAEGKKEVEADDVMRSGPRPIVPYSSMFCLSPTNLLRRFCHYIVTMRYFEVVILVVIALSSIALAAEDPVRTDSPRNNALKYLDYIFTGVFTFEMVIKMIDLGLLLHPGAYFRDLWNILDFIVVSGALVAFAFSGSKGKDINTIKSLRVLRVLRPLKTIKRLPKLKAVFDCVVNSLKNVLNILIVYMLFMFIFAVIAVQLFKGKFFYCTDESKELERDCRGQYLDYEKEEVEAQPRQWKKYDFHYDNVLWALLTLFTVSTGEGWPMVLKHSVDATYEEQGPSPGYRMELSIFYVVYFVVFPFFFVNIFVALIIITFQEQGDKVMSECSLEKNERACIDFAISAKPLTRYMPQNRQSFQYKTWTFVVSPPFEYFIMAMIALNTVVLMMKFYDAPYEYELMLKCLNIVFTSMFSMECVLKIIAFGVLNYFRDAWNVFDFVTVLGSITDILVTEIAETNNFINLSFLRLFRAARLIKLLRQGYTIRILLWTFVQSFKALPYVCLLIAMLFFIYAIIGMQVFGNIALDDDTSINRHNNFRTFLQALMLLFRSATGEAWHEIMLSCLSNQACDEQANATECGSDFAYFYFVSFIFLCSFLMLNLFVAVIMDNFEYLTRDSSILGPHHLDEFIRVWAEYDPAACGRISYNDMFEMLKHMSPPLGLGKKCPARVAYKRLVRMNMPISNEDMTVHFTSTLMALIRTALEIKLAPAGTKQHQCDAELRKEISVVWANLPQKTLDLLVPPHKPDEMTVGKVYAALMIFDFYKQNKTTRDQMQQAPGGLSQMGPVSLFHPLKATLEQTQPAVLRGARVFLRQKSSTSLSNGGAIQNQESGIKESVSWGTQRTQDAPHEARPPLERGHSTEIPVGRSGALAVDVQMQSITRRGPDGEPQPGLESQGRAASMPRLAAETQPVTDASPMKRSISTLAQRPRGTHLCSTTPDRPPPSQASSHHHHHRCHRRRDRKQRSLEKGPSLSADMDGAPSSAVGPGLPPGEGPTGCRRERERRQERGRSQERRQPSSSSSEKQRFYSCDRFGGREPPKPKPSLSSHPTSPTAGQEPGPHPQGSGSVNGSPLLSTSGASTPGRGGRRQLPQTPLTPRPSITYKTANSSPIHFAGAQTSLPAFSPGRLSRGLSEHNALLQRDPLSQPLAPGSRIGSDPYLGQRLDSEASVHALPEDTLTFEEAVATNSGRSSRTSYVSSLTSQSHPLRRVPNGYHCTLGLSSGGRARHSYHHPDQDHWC
T2 sequence (P54290 25-944 partner limits assumed, other chains not shown): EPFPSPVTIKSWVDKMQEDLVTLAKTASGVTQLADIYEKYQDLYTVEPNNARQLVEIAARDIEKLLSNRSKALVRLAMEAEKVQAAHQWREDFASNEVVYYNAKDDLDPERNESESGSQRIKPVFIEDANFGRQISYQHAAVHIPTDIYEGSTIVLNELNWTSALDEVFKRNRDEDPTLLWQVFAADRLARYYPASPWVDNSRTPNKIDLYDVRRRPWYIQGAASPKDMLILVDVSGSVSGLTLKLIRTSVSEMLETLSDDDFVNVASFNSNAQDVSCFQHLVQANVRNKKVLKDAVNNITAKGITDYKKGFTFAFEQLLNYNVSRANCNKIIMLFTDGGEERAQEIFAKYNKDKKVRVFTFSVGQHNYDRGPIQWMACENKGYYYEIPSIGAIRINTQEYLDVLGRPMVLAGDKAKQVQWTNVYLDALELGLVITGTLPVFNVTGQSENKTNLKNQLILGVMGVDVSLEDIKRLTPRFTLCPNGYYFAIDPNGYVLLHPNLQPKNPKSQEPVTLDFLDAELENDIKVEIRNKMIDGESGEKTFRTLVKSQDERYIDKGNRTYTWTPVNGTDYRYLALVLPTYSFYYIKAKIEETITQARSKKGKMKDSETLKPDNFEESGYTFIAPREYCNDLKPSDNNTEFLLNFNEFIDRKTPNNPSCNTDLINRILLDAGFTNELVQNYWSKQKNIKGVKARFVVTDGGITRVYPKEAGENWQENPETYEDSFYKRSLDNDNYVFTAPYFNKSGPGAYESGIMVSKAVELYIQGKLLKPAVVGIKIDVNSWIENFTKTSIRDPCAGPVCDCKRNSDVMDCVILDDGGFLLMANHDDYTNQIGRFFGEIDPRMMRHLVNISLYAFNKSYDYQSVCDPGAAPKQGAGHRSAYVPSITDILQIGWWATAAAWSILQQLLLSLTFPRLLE
T2 sequence (P54290 945-1091 partner limits assumed, other chains not shown): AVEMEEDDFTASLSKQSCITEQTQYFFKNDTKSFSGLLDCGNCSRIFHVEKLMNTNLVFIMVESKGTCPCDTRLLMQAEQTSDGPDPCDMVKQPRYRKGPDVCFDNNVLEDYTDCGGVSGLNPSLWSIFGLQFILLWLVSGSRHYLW
T3 sequence (Q00975 357-482): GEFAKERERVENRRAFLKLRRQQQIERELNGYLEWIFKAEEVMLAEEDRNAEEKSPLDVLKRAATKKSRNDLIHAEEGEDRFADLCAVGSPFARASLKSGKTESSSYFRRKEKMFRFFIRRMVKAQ
T1 sequence (P15381 436-554): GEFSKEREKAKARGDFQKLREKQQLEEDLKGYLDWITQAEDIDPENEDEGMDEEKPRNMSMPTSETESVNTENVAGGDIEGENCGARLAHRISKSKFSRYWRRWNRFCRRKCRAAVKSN

Molecule | Interaction with I-IIC (yeast two-hybrid) (I-II loop of α1C (I-IIC)) | Effect on G/Q slope (Gmax-Qmax relation), with Gβγ [1] | Effect on G/Q slope and currents, without Gβγ ([1]; peptide coexpressed with channels, absent Gβγ) | Interaction with I-IIB (yeast two-hybrid, ΔB) (I-II loop of α1B (I-IIB)) | DF (prepulse facilitation) [1] | Induction time of constitutive inhibition after receptor activation [1] | Reversal of constitutive inhibition on removal of carbachol [1] | Functional profile with m2R, absent carbachol ([1]; channels + m2R + NTB peptide, 0 min CCH) | G/Q slope with m2R and carbachol ([1]; channels + m2R + free NTB peptide, carbachol ≧30 min (50 μM CCH)) | Conversion to constitutively reluctant channels ([1]; deduced from DF˜4 via FIG. 7B model, free NTB with Gβγ) [%] | DF (degree of prepulse facilitation) ([1]; free NTB with Gβγ)
NTC: NH3 terminus of L-type channel α1C subunit, free peptide [reference compound] | failed to reveal an association | had no effect | had no effect | failed to reveal an association |  |  |  |  |  |  | 
B1 | failed to reveal an association | identical to those obtained with NTB-CFP |  | positive | 2.64±0.18 | 10 to 15 min and ~10 min | did not reverse inhibition | indistinguishable from control N-type channels | marked suppression of the G/Q slope | ~75 | ~4
